Earlier results on one substance are cited in article PMC5472405.

In this series the target is CXCR4 (Homo sapiens) (UniProt P61073).
CXCR4 (Homo sapiens), sequence (P61073 whole entry): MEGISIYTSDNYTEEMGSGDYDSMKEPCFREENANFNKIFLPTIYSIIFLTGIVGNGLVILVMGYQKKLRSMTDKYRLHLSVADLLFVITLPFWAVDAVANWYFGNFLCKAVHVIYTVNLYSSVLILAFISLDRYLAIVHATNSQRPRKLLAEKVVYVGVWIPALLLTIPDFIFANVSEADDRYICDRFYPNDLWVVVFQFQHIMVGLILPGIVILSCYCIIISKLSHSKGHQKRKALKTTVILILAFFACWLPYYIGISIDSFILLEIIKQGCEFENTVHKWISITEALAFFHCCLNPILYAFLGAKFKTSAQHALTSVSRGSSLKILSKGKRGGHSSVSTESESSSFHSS

CXCL14, sequence (O95715 35-111): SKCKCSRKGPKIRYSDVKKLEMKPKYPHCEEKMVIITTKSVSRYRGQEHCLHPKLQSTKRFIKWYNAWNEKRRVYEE

Usually Kd stands for the free concentration of one partner at which half of the binding sites on the other are occupied at equilibrium, for simple one-to-one binding. On to CXCL14 (from UniProt O95715), for which the Kd was 0.0147 µM.
